Test results as given in IntAct's records for PubMed 18682223.

B1: DNA polymerase processivity factor (Human cytomegalovirus (strain AD169) (HHV-5)), P16790 (parent)
chain: MDRKTRLSEPPTLALRLKPYKTAIQQLRSVIRALKENTTVTFLPTPSLILQTVRSHCVSKITFNSSCLYITDKSFQPKTINNSTPLLGNFMYLTSSKDLTKFYVQDISDLSAKISMCAPDFNMEFSSACVHGQDIVRESENSAVHVDLDFGVVADLLKWIGPHTRVKRNVKKAPCPTGTVQILVHAGPPAIKFILTNGSELEFTANNRVSFHGVKNMRINVQLKNFYQTLLNCAVTKLPCTLRIVTEHDTLLYVASRNGLFAVENFLTEEPFQRGDPFDKNYVGNSGKSRGGGGGGGSLSSLANAGGLHDDGPGLDNDLMNEPMGLGGLGGGGGGGGKKHDRGGGGGSGTRKMSSGGGGGDHDHGLSSKEKYEQHKITSYLTSKGGSGGGGGGGGGGLDRNSGNYFNDAKEESDSEDSVTFEFVPNTKKQKCG
partner: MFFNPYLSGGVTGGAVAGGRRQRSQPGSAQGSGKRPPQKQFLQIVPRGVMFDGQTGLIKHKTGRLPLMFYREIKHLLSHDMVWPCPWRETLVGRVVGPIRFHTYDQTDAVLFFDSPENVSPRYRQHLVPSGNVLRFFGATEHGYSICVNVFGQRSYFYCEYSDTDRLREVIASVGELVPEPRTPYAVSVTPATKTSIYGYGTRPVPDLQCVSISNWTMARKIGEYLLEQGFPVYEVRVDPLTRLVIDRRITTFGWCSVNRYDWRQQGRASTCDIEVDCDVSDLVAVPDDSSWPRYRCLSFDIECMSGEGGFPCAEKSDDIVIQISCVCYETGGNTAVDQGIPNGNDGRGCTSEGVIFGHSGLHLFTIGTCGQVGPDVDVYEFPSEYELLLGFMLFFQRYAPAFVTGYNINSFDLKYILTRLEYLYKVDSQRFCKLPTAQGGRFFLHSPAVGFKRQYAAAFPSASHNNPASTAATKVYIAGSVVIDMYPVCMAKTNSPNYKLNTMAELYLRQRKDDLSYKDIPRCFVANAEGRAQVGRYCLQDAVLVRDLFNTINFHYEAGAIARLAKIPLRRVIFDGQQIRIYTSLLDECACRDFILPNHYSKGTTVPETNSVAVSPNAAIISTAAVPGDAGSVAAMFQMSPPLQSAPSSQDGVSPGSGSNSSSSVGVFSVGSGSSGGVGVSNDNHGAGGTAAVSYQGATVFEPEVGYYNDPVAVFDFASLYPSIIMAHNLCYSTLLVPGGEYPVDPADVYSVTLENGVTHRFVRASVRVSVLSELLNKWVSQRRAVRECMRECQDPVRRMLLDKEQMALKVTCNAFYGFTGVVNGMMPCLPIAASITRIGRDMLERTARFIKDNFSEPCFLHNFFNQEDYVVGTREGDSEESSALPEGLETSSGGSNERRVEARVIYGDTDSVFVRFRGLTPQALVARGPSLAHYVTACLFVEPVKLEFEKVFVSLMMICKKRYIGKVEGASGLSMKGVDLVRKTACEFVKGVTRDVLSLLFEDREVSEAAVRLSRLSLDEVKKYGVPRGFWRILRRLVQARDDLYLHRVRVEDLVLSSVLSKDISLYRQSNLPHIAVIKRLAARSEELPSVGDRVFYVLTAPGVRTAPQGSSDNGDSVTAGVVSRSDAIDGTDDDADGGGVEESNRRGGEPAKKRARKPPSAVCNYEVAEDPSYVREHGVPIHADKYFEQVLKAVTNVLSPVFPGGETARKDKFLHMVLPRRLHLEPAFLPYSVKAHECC

Variants of: B1
Settings: with dpol_hcmva UL54, P08546

**Q.** How did the “effect of a mutation on the interaction” value turn out when K35A;K158A;K224A;K237A was run?
**A.** decreasing interaction

**Q.** R165A;K167A;R168A;K171A;K172A was tested. Which “effect of a mutation on the interaction” value did it give?
**A.** decreasing interaction
